Test results reported in patent US20220305135A1 (UNIVERSITY OF CHICAGO, published 2022).

Legend:
[1] = target: T1, extra domain A (EDA) of fibronectin; experiment: ELISA, EDA coated on plate, Fab titrated, anti-human IgG-HRP detection; apparent Kd by one-site nonlinear regression
T1 chain: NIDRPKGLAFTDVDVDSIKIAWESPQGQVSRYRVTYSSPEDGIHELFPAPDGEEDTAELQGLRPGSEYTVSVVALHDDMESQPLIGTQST

[2] = target: T1, extra domain A (EDA) of fibronectin; experiment: ELISA on plates coated with 10 µg/mL EDA, detection with HRP anti-human IgG, absorbance at 450 nm [panel C]

Kd [1]: 50.9 nM
EC50 (read off the curve) [2]: ~80 nM
B1: Human anti-EDA Fab (Fab, V domains shown)
VH: EVQLLESGGGLVQPGGSLRLSCAASGFTFSVMKMSWVRQAPGKGLEWVSAISGSGGSTYYADSVKGRFTISRDNSKNTLYLQMNSLRAEDTAVYYCAKSTHLYLFDYWGQGTLVTVSS
VL: EIVLTQSPGTLSLSPGERATLSCRASQSVSNAFLAWYQQKPGQAPRLLIYGASSRATGIPDRFSGSGSGTDFTLTISRLEPEDFAVYYCQQMRGRPPTFGQGTKVEIKR
notes: Made recombinantly in HEK-293F cells
